test: yeast display, Sf9 membrane polyspecificity reagent, FACS + sequencing; frameworks hold sequencing errors
Summary of the method: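 Nanobodies came from a synthetic yeast display library in Saccharomyces cerevisiae BJ5465, induced with galactose for 36–48 hours and stained for 1 hour at 4 °C with 10% biotinylated, detergent-solubilized Sf9 membrane reagent. Cells were enriched on streptavidin microbeads and then FACS-sorted, with low and high (top ~1%) gates set on anti-HA fluorescence for expression and streptavidin fluorescence for reagent binding. Each polyreactivity label reflects the gate a clone came from. Genes were amplified by colony PCR, sequenced by MiSeq 2 × 250 and filtered by CDR length.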

Row | Sequence | polyreactivity (PSR sort gate)
1 | QVQHVESGGGLVQAGGSLRLSCAASGGIFYYNTMGWYRQAPGKERELVAAITGGGRTNYADSVKGRFTISRDNAKNTVYLQMNSLKPEDTAVYYCNAVYWRTRMDYWGQGTQVTVSS | high polyreactivity
2 | QVQLVESGGGLVQAGGSLRLSCAATGNIFTPYTMGWYRQAPGKERELVASINNAGTTKYADSVKGRFTISRDNAKTTVYLQMNSLKPEDTAVYYCAAQRRHALSSYPKHYYWGQGTQVTVSS | low polyreactivity
3 | QVQIVESGGRLVQAGCSLRLSCAASGSTFKINAMGWYRQAPGKEWELVAVIRSRGTSTYYADSVKGRFTISRDNSKNTVYLQMNSLKPVDTAVYNCAAGRINGGDYWGQGTQVTVSS | high polyreactivity
4 | QVQLVESGGGLVQAGGSLRLSCAASGRTFHIYAMGWYRQAPGKERELVAAIRGRSGSTYYADSVKGRFTISRDNAKNTVYLQMNSLKPEDTAVYYCAVGRYPYGSARYRFDYWGQGTQVTVSS | high polyreactivity
5 | QVQLVESGGGLVQAGGRLRLSCAASGRIFAKNAMGWYRQAPGKERELVAAISGSGGSTYYADSVKGRFTISRDNAKNTVYLQMNSMKPDDTAVYYCAATRGPNYRNGYWGQGTQVTVSS | high polyreactivity
6 | QVQLVESGGGLVQAGGSLRLSCAASGFTSAPNAMGWYRQAPGKERELVAAITSSTGRTRYADSVKGRFTISRDNAKNTVYLQMNSLKPEDTAVYYCAVKLLFRGTYEYWGQGTQVTVSS | low polyreactivity
7 | QVQLVESGGGLVQAGGSLRLSCAASGFIFHVYAMGWYRQAPGKEREFVAGISWRGGRTYYADSVKGRFTISRDNAKNTVYLQLNSLKPEDTAVYYCAALGLNAGGKFDYWGQGTQVTVSS | high polyreactivity
8 | QVQLVESGGGLVQAGGSLRLSCAASGRTFGKYAMGWYRQAPGKERELVASITFSSGSTYYADSVKGRFTISRDNAKNTVYLQMNSLKPEDTAVYYCAKRGWGIYDYWGQGTQVTVSS | low polyreactivity
9 | QVQLVESGGGLVQAGGSLRLSCAASGRIFYANAMGWYRQAPGKERELVAAISSGGSTYYADSVKGRFTISRDNAKNTVYLQMNSLKPEDTAVYYCATDYQSTSVWGGHFVINPYDYWGQGTQVTVSS | low polyreactivity
10 | QVQLVESGGGLVQAGGSLRLSCAASGSTFYYYTMGWYRQAPGKERELVATITYRSGNTYYADSVKGRFTISRDNAKNTVYLQMNSLKPEDTAVYYCAALRRVLPYKRYDYWGQGTQVTVSS | high polyreactivity
11 | QVQLVESGGGLVQAGGSLRLSCAASGLTFLNNAMGWYRQAHGKERELVAAISDGGSTNYADSVKGRFTISRDNAKNTVYLQMNSLKPEDTAVYYCGADYTSASYGSWGQGTQVTVSS | low polyreactivity
12 | QVQHVESGGGLVQAGGSLRLSCAASGRIFVAYTMGWYRQAPGKERELVAGISRSGGSTYYADSVKGRFTISRDNAKNTVYLQMNNLKPEDTAVYYCAVGNWRLFPYGYWGQGTQVTVSS | high polyreactivity
13 | QVQLQESGGGLVQAGGSLRLSCAASGYIFPTAIMGWYLQATGKERKLVAAINPGSNTYYADSVKGRFTFSRDNAKNTVYLQMYSLKPEDAAVYYCAVSIWLEGTLDYWGQGTQVTVSS | low polyreactivity
14 | QVQLVESGGGLVQAGGSLRLSCAASGRIFSAYVMGWYRQAPGKERELVAAISSGGSRTSYADSVKGRFTISRDNAKNTVYLQMNSLKPEDTAVYYCAAARFYRSAYGYWGQGTQVTVSS | high polyreactivity
15 | QVQLVESGGGLVQAGVSLRLSCAASGSTFARYAMGWYRQAPGKERELVAVITQSGSSTYYADSVKGRFTISRDNAKNTVYLQMNSLKPEDTAVYYCAAVGIDYTRYGRYWYSYDYWGQGTQVTVSS | high polyreactivity
16 | QVQLVESGGGLVQAGGSLRLSCAASGSTFAYNDMGWYRQAPGKERELVADIRSGGNTNYADSVKGRFTISRDNAKNTVYLQMNSLKPEDTAVYYCATDGYRIDVYHPDYRYDYWGQCTQVTVSS | low polyreactivity
17 | QVQLVESGGGLVQAGGSLRLSCAASGRIFKDHAMGWYRQAPGKERELVAGITSIGDNTYYADSVKGRFTISRDNAKNTVYLQMNSLKPEHTAVYYCNADYGYDSVVEYDYWGQGTQVTVSS | low polyreactivity
18 | QVQLVESGGGLVQAGGSLRLSCAASGSTFTSYAMGWYRQAPGKERELVAAISKSGGSTNYADSVKGRFTISRDNAKNTVYLQMNSLKPEDTAVYYCAALGIGSYRRYSGYDYWGQGTQVTVSS | low polyreactivity
19 | QVQLVESGGGLVQAGGSLRLSCAASGSIFDAYAMGWYRQAPGKERELVAAISSGGNTNYADSVKGRFTISRDNAKNTVDLQMNSLKPEDTAVYYCAADFTHPDGLPGFDYWGQGTQVTVSS | low polyreactivity
20 | QVQLVASGGGLVQAGGSLRFSCAASGRPLSYYAMGWYREAPGKERELVAAISRRGGSTYYADSVKGRFTISRDNAQNTVYIQMNSLKPKDTAVYYCAAETFDYADYIANGSGEYDYWGQGTQVTVSS | high polyreactivity
21 | QVQLVESGGGLVQAGGSLRLSCAASGRIFRGYAMGWYRQAPGKEREFVAAITKNGGSTYYADSVKGRFTISRDNAKNTVYLQMHSLKPEDTAVYYCAVRAWDPYTGKSDYWGQGTQVTVSS | low polyreactivity
22 | QVQLVESGGGLVQAGGSLRLSCAASGSTFSWYAMGWYRQAPGKERELVAAITRSGGRTYYADSVKGRFTISRDNAKNTVYLQMNSLKPEDTAVYYCAAVQYKSPHNYWGQGTQVTVSS | high polyreactivity
23 | QVQLVESGGGLVQAGGSLHLSCAASGSIFRKNAMGWYRQAPGKERELVAVITSSGASTYYADSVKGRFTISRDNAKNTVYLQMNSLKPEDTAVYYCNAPSFYTKKMYSWGQGTQVTVSS | high polyreactivity
24 | QVQLVESGGGLVQAGGSLRLSCAASGFIFVNNVMGWYRQAPGKERELVAAISRRGGSTYYADSVKGRFTISRDNAKNTVYLQMNSLKPEDTAVYYCARRGPDFSWKYDYWGQGTQVTVSS | high polyreactivity
25 | QVQVVESGGGLVQAGGSLRLRCAASGRSFVRNAMGWYRQAPGKEREFVAAINSGGSTYYADSVKGRFTISRDNAKNTVYLQMNSLKPEDTAVYYCAAELHIYYSWYWYDYWGQGTQVTVSS | high polyreactivity
26 | QVQLVESGGGLVQAGGSLRLSCAASGSIFRNYAMGWYRQAPGKERELVASIRYSGGRTNYADSVKGRFTISRDNAKNTVYLQMNSLKPEDTAVYYCAADPGYGWQRAYYYWGQGTQVTVSS | high polyreactivity
27 | QVQLVESGGGLVQAGGSLRLSCASSGSTFVTYAMGWYRQAPGKERELVAAITEDGASTYYADSVKGRFTISRDNAKNTVYLQMNSLKPEDTAVYYCAADPTYWPVWYVLYDYWGQGTQVTVSS | low polyreactivity
28 | QVQLVDSRGGLVQAGGSLRLSCAASGIIFGYYAMGWYRQAPGKERELVAAITWSGGSTYYADSVKGSFTISRDNAKNTVYLQMNSLKPEDTAVYYCAASAYVQPYDYWGQGTQVTVSS | high polyreactivity
29 | QVQLVESGGGLVQAGGSLRLSCAASGITFYRNAMGWYRQAPGKERELVAAITWNGGRTYYADSVKGRFTISRDYAKNTVYLQMNSLKPEDSAVYYCAKRYGSTQSRYVYWGQGTQVTVSS | high polyreactivity
30 | QVQLVETGGGLVQAGGSLRLSCAASGSIFTYYAMGWYRQAPGKEREFVAGISWSGGRTYYADSVKGRFTISRDNAKNTVYLQMNSLKPEDTAVYYCAAEIHDRFDSWGQGTQVTVSS | low polyreactivity

Reference: the nanobody polyreactivity screen of Harvey et al. (2022)
